Literature values, collected in US20100028328A1, “TOPICAL TREATMENT FOR DISEASES OF EYE SURFACE” (THERAKINE, LTD., priority 2006, published 2010).

What was measured:
[1] = tested on: Herpetic Stromal Keratitis (HSK), Herpes simplex virus infection of the cornea; details: treatment of HSK
[2] = tested on: allogeneic corneal transplants; details: topical treatment

Which “influx of cells of the innate and adaptive immune system into the cornea” value [1] does the source give for IL-1 ra: receptor antagonist to IL-1 here?
The value was “reduce the influx of cells of the innate and adaptive immune system into the cornea”.

B1: TNFR-I: a TNF antagonist; topical soluble tumor necrosis factor receptor type I (protein, UniProt P19438 30-211, looked up)
extracellular domain: LVPHLGDREKRDSVCPQGKYIHPQNNSICCTKCHKGTYLYNDCPGPGQDTDCRECESGSFTASENHLRHCLSCSKCRKEMGQVEISSCTVDRDTVCGCRKNQYRHYWSENLFQCFNCSLCLNGTVHLSCQEKQNTVCTCHAGFFLRENECVSCSNCKKSLECTKLCLPQIENVKGTEDSGTT
modifications: extracellular domain
What does the source list for B1?
acceptance of allogeneic corneal transplants [2]: promoted the acceptance of allogeneic corneal transplants; gene expression of chemokines associated with corneal graft rejection (RANTES, macrophage inflammatory protein-1beta) [2]: inhibited gene expression of 2 chemokines
